{
  "source": "the nanobody polyreactivity screen of Harvey et al. (2022)",
  "data": [
    {"experiment": "yeast display, Sf9 membrane polyspecificity reagent, FACS + sequencing; frameworks hold sequencing errors", "method_in_brief": "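In a synthetic yeast display library (Saccharomyces cerevisiae BJ5465), nanobody expression was induced with galactose for 36–48 hours. FACS gates were set low and high (top ~1%) using anti-HA fluorescence for expression and streptavidin fluorescence for binding of the Sf9 membrane reagent. Each polyreactivity label is drawn from the gate of origin.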", "values": [
      {"sequence": "QVQLVESGGGLVQAGGSLRLSCAASGSIFPGNTMGWYRQAPGKERELVAVITKRGGRTYYADSVKGRFTISRDNAKNTVYLQMNSLKPEDTAVYYCARAPSYSTGVSIRDYWGQGTQVTVSS", "polyreactivity (PSR sort gate)": "high polyreactivity"},
      {"sequence": "QVQLVESGGGLVQAGGSLRLSCAASGSIFPGYAMGWYRQAPGKERELVADITSGDTTKYADSVKGRFTISRDNAKNNVYLQMNSLKPEDTAVYYCAADDYLTDFDYWGQGTQVTVSS", "polyreactivity (PSR sort gate)": "low polyreactivity"},
      {"sequence": "QVQLVESGGGLVQAGGSLRLSCAASGSIFPGYTMGWYRQAPGKESELVAAITSSGGSTYYADSVKGRITISRDNAKNTVYLQMNSLKPEDTSVYYCAADTTNYFVPFDYWGLGTQVTVSS", "polyreactivity (PSR sort gate)": "low polyreactivity"},
      {"sequence": "QVQLVESGGGLVQAGGSLRLSCAASGSIFPHYAMGWSRQAPGKEREFVATISGSTGRTYYADSVKGRFTISRDNAKNTVYLQMNSLKPEDTAVYYCATSVGYYLPPIKYDYWGQGTQVTVSS", "polyreactivity (PSR sort gate)": "low polyreactivity"},
      {"sequence": "QVQLVESGGGLVQAGGSLRLSCAASGSIFPINAMGWSRQAPGKERELVAAITVSDGRTYYADSVKGRFTISRDNAKNTVYLQMNSLKPEDTAVYYCAAVTPFRVLYDYWGQGTQVTVSS", "polyreactivity (PSR sort gate)": "low polyreactivity"},
      {"sequence": "QVQLVESGGGLVQAGGSLRLSCAASGSIFPIYAMGRYRQAPGKEMELVAAINRSGGSTYYADSVKGRFTISRDNAKNSVYLQMNSLIPEDTAVYYCNADYGYHNQLFWGYYGWSSDHWGQGTQVTVSS", "polyreactivity (PSR sort gate)": "low polyreactivity"},
      {"sequence": "QVQLVESGGGLVQAGGSLRLSCAASGSIFPKYAMGWYRQAPGKERELVAAITSSGGRTYYADSVKGRFTISRDNAKNTVYLQMNSLKPEDTAVYYCAARSPRASGNSDYWGQGTQVTVSS", "polyreactivity (PSR sort gate)": "high polyreactivity"},
      {"sequence": "QVQLVESGGGLVQAGGSLRLSCAASGSIFPLYDMGWYRLAPGKERELVAGITGSGGSTYYADSVKGRFTISRDNAKNTVYLQMNSLKPEDTAVYYCAADYSLYGWWFRNDYWGQGTQVTVSS", "polyreactivity (PSR sort gate)": "low polyreactivity"},
      {"sequence": "QVQLVESGGGLVQAGGSLRLSCAASGSIFPPYTMGWYRQAPGKERELVAAISWGGGSTYYADSVKGRFTISRDNAKNTVYLQMNSLKPEDTAVYYCAAGRYYRGYYWGQGTQVTVSS", "polyreactivity (PSR sort gate)": "high polyreactivity"},
      {"sequence": "QVQLVESGGGLVQAGGSLRLSCAASGSIFPPYVMGWYRQAPGKERELVASITTSGGSTYYADSVKGRFTISRDNAKNTVYLQIKSLKPEDTAVYYCAARWYYGGKSAGPGGGYWGQGTQVTVSA", "polyreactivity (PSR sort gate)": "low polyreactivity"},
      {"sequence": "QVQLVESGGGLVQAGGSLRLSCAASGSIFPRNAMGWYRQAPGKERELVARINSGGTTKYADSVKGRFTISRDNAKYTVFLQMNSLKPEDTAGYYCNADTYILDPLRKSYGYDYWGQGTQVTVSS", "polyreactivity (PSR sort gate)": "low polyreactivity"},
      {"sequence": "QVQLVESGGGLVQAGGSLRLSCAASGSIFPRYAMGWYSQAPGKERELVATISYRGGTTYYADSVKGRFTISRDNEKNTVYLQMNSLKPEDSAVYYCNTLYYRGIYDPWGQGTQVTVSS", "polyreactivity (PSR sort gate)": "high polyreactivity"},
      {"sequence": "QVQLVESGGGLVQAGGSLRLSCAASGSIFPRYGMGLYRQAPGKERELVAAITTGGNTYYADSVKGRFTISRDNAKNTVYLQMNSLKPEDTAVYYCNARAVTPWFGFYYWGQGTQVTVSS", "polyreactivity (PSR sort gate)": "low polyreactivity"},
      {"sequence": "QVQLVESGGGLVQAGGSLRLSCAASGSIFPSYAMGWYRQAPGKERELVAAINWDGGSTFYADSVKGRFTISRDNAKNTVYLQMKSLKPEDTAVYYCAAPDNYGGVGGITFWRMDYWGQGTQVTVSS", "polyreactivity (PSR sort gate)": "low polyreactivity"},
      {"sequence": "QVQLVESGGGLVQAGGSLRLSCAASGSIFPSYAMGWYRQAPGKERELVATIGRGGTTNYADSVKGRFTISRDNAKNTVYLQMNSLKPEDTEVYYCNAERIWRYKYGYDYWGQGTQVTVSS", "polyreactivity (PSR sort gate)": "high polyreactivity"},
      {"sequence": "QVQLVESGGGLVQAGGSLRLSCAASGSIFPSYAMGWYRQAPGKERELVATISGSGTSTYYADSVKGRFTISRDNAKNTVYLQMNSLKPEDTAVYYSAADPWLGTGRYDYWGQGTQVTVSS", "polyreactivity (PSR sort gate)": "low polyreactivity"},
      {"sequence": "QVQLVESGGGLVQAGGSLRLSCAASGSIFPTNTMGWYRQAPGKERELVASINSDGSTNYADSVKGSFTISRDNAKNTVYLQMNSLKPEDTAVYYWAADTQGSEYEFWGQGTQVTVSS", "polyreactivity (PSR sort gate)": "low polyreactivity"},
      {"sequence": "QVQLVESGGGLVQAGGSLRLSCAASGSIFPTYALGWYRQAPGKERELVAAISSIVGGTYYADSVKGRFTISRDNAKNTVYLQMNSLKPEDTAVYYCNKTKFQGYDYWGQGTQVTVSS", "polyreactivity (PSR sort gate)": "low polyreactivity"},
      {"sequence": "QVQLVESGGGLVQAGGSLRLSCAASGSIFPTYVMGWYRQAPGKERELVAAISARGDSTYADSVKGRFTISRDNAKNTVYLQMNSLKPEDTAVYYCAKSAHSDYVYSRLEFGYWGQGTQVTVSS", "polyreactivity (PSR sort gate)": "low polyreactivity"},
      {"sequence": "QVQLVESGGGLVQAGGSLRLSCAASGSIFPVNAMGWYRQAPGKERELVAAISSDGTTYYADSVKGRFTISRDNAKNTVYLQMNSLKPEDTAVYYCAKDRRYYKAYDYWGQGTLVTVSS", "polyreactivity (PSR sort gate)": "low polyreactivity"},
      {"sequence": "QVQLVESGGGLVQAGGSLRLSCAASGSIFPVYAMGWYRQAPGKERELVASISTGGSTYYADSVKGRFTISRDNAKNTVYLQMNSLKPEDTAVYYCSATGWAYGYGYGYWGQGTQVTVSS", "polyreactivity (PSR sort gate)": "low polyreactivity"},
      {"sequence": "QVQLVESGGGLVQAGGSLRLSCAASGSIFPWNAMGWYRKAHGKARELVAVISQNGGRTYYADSVKGSFTISRDKAKNTVYLQMNSLKPEDTAVYYCAARPRLPRQIGGDGHLDDYWGQGTQVTVSS", "polyreactivity (PSR sort gate)": "high polyreactivity"},
      {"sequence": "QVQLVESGGGLVQAGGSLRLSCAASGSIFPWNAMGWYRQAPGKERELVAAISYSGTRTYYADSVKGRFTISRDNAKNTVYLQMNSLKPVDTAVYYCNARGYTRSYVKYDYWGQGTQVTVSS", "polyreactivity (PSR sort gate)": "high polyreactivity"},
      {"sequence": "QVQLVESGGGLVQAGGSLRLSCAASGSIFPWYAMGWYRQAPWKERELVAGISSGGGTNYADSVKGRFTISRDNAKNTVYLQMNSMKPEDTAVYYCNADYFGGGDYWGQGTQVTVSS", "polyreactivity (PSR sort gate)": "low polyreactivity"},
      {"sequence": "QVQLVESGGGLVQAGGSLRLSCAASGSIFPWYVMGWYRQAPRKERELVASITYRGASTYYADSVKGRFTISRDNAKNTVYLQMNSLKPEDTAVYYCADFRSYYSERHDYGYWGQGTQVTVSS", "polyreactivity (PSR sort gate)": "low polyreactivity"},
      {"sequence": "QVQLVESGGGLVQAGGSLRLSCAASGSIFPYNAMGWYRQAPGKERELVAAISRSGGSTYYADSVKGRFTISRDNAKNTVYLQMNSLKPEDTAVYYCAAYSLYWRDDYWGQGTQVTVSS", "polyreactivity (PSR sort gate)": "high polyreactivity"},
      {"sequence": "QVQLVESGGGLVQAGGSLRLSCAASGSIFPYNAMGWYRQAPGKERELVATISSGGSTNYADSVKGRFTISRDNAKNTVYLQMNSLKPEDTAVYDCAADVIVFYYAPNYWGDIGYGYWGQGTQVTVSS", "polyreactivity (PSR sort gate)": "low polyreactivity"},
      {"sequence": "QVQLVESGGGLVQAGGSLRLSCAASGSIFPYNVMGWYRQAPGKERELVAVITGSTGRTYYADSVKGRFTISRDNAKNTVYLQMNSLKPEDTAVYYCAKRRYWAPYDYWGQGTQVTVSS", "polyreactivity (PSR sort gate)": "high polyreactivity"},
      {"sequence": "QVQLVESGGGLVQAGGSLRLSCAASGSIFPYYAMGWYRQAPGKEREFVAAITISGGSTYYADSVKGRFTISRDNAKNTVYLQMNSLKPEDTAVYYCNADKGYVYGDTFYQSGGYYSWGQGTQVTVSS", "polyreactivity (PSR sort gate)": "low polyreactivity"},
      {"sequence": "QVQLVESGGGLVQAGGSLRLSCAASGSIFPYYAMGWYRQAPGKERELVAAISSGDITDYADSVKGRFTISRDNAKNTVYLQMNSLKPEDTAVYYCAAVYDLGYYGPIWAIVLDDYWGQGTQVTVSS", "polyreactivity (PSR sort gate)": "low polyreactivity"},
      {"sequence": "QVQLVESGGGLVQAGGSLRLSCAASGSIFPYYAMGWYRQAPGKERELVAAITLSGGRTYYADSVKGRFTISRDNAKNTVYLQMNSLKPEDTAVYYCNVYRSKKRYGWGEDDYWGQCTQVTVSS", "polyreactivity (PSR sort gate)": "high polyreactivity"},
      {"sequence": "QVQLVESGGGLVQAGGSLRLSCAASGSIFPYYAMGWYRQAPGKETELVAVINSGGITNYADSVKGRFTISRDNAKNTVYLQMNSLKPEDTAVYYCAAAASPLTRHLYWGQGTQVTVSS", "polyreactivity (PSR sort gate)": "low polyreactivity"},
      {"sequence": "QVQLVESGGGLVQAGGSLRLSCAASGSIFPYYTMGWYRQAPGKERELVAAISGSGTSTYYADSVKGRFTISRDNAKNTVYLQMNSLKPEDTADYYCAAPDPDKVRSEGYGYWGQGTHVTVSS", "polyreactivity (PSR sort gate)": "low polyreactivity"},
      {"sequence": "QVQLVESGGGLVQAGGSLRLSCAASGSIFQAYVMGWYRQAPGTERELVATIDRRGGITYYADSVKGRFTISRDNAKNNVYLQMNSLKPEDTAVYYCATALIVLGPSRYEYWGQGTQVTVSS", "polyreactivity (PSR sort gate)": "high polyreactivity"},
      {"sequence": "QVQLVESGGGLVQAGGSLRLSCAASGSIFQDYAMGWYRQAPGKERELVAAITSDGSTYYADSVKGRFTISRDNAKNTVYLQMNSLKPEDTAVYYCATDKLYGRTVRMDYWGQGTQVTVSS", "polyreactivity (PSR sort gate)": "low polyreactivity"},
      {"sequence": "QVQLVESGGGLVQAGGSLRLSCAASGSIFQFNGMGWYRQAPGKERELVASINWSGGSTNYADSVMGRFTISRDNAKNTVYLQMNSLKAEDTAVYYCAVGHRIYRSRYNYWGQGTQVTVSS", "polyreactivity (PSR sort gate)": "low polyreactivity"},
      {"sequence": "QVQLVESGGGLVQAGGSLRLSCAASGSIFQFYAMGWYRQAPGKERELVAAITGDGSTDYADSVKGRFTISRDNAKNTVYLQMNSLKPEDTAVYYCAADLWRYLGWYYIYHYDYWGQGTQVTVSS", "polyreactivity (PSR sort gate)": "low polyreactivity"},
      {"sequence": "QVQLVESGGGLVQAGGSLRLSCAASGSIFQGNVMGWYRQAPGKERELVAAIRNSGGTTYYADSVKGRFTISRDNAKNTVYLQMNSLKPEDTAVYYCAARYINRYPKAQPTDRSIYYWGQGTQVTVSS", "polyreactivity (PSR sort gate)": "high polyreactivity"},
      {"sequence": "QVQLVESGGGLVQAGGSLRLSCAASGSIFQGYAMGWYRQAPGKERELVAAITYSGGRTYYADSVKGRFTISRDNAKNTVYLQMNSLKPEDTAVYYCAALTRRVKKYDYWGQGTQVTVSS", "polyreactivity (PSR sort gate)": "high polyreactivity"},
      {"sequence": "QVQLVESGGGLVQAGGSLRLSCAASGSIFQGYAMGWYRQAPGKERELVAGITSSGGRTRYADSVKGRFTISRDNAKNTVFLQMNSLKPEDTAVYYCAADYVRHIGYNYWGQGTQVTVSS", "polyreactivity (PSR sort gate)": "high polyreactivity"},
      {"sequence": "QVQLVESGGGLVQAGGSLRLSCAASGSIFQGYSMGWYRQAPGKERELVAAITASGGSTYYADSVKGRFTISRDNAKNTVYLQMNSLKPEDTAVYYCATDSYWRQDLYRYEYWGQGTQVTVSS", "polyreactivity (PSR sort gate)": "high polyreactivity"},
      {"sequence": "QVQLVESGGGLVQAGGSLRLSCAASGSIFQIYAMGWYRPAPGKERELVAAINSGGITKYADSVKGRFTISRDNAKNTVYLQMNSLKPEDTAVYYCAKRYGWPYGRFDYWGQGTQVTVSS", "polyreactivity (PSR sort gate)": "low polyreactivity"},
      {"sequence": "QVQLVESGGGLVQAGGSLRLSCAASGSIFQPNAMGWYRQAPGKERELVASIRGRGGDTYYADSVKGRFTISRDTAKNTVYLQMNSLKPEDTAVYYCAADYRWGQGTQVTVSS", "polyreactivity (PSR sort gate)": "low polyreactivity"}
    ]}
  ]
}
